Data set [1] addresses SARS-CoV-2 nonstructural protein 13 (CoV-2 Nsp13) (SARS-CoV-2, UniProt P0DTD1 5325-5925). Description: fluorescence anisotropy; Fluorescence anisotropy, 50 mM Tris-HCl pH 7.0 with 300 mM NaCl ([…]) or 20 mM NaCl ([…]; temperature not stated. Conditions: protein: recombinant; tags: 6xHis-SUMO, removed with SUMO protease; label: 3'-FAM (fluorescein); single strand, 43 nt. In general terms: In fluorescence polarisation assays a small probe gives low polarisation when free and higher when bound to something large.

The target in data set [2] is SARS-CoV-2 nucleocapsid protein (CoV-2 N) (SARS-CoV-2 (2019-nCoV), UniProt P0DTC9 1-419). Briefly: fluorescence anisotropy; 300 mM NaCl; 5 nM DNA; Kd was fitted but its value is only in Figure 7A; Fluorescence anisotropy, 50 mM Tris-HCl pH 7.0 with 300 mM NaCl (N) or 20 mM NaCl (Nsp13); 5 min equilibration, second reading after 10 min; temperature not stated. The settings on record: protein: recombinant; chain copies: 2; label: 3'-FAM (fluorescein); single strand, 43 nt.

B1: S43 (ssDNA)
DNA: CTGTAGGAATGTGAAATAAAAACGATGTTTTATTTACATTGTA
Regarding B1, the binding result in data set [1] and in data set [2] was “binds” each time.

These data come from publication PMC9354549, “SARS-CoV-2 Nucleocapsid Protein Has DNA-Melting and Strand-Annealing Activities With Different Properties From SARS-CoV-2 Nsp13”.
